Our source for the % activity, 100 µM values is patent US20140072613A1, “Compositions and Methods for Treating Cutaneous Scarring” (priority 2012, published 2014).

Targets include EGFR(L858R)(h) (human) (UniProt P00533); mTOR(h) (human) (UniProt P42345); PAK4(h) (human) (UniProt O96013).
What all share (experiment): cell-based or functional assay
The target of another assay is T1, IKKα(h) (human) (UniProt O15111).
T1 sequence (looked up): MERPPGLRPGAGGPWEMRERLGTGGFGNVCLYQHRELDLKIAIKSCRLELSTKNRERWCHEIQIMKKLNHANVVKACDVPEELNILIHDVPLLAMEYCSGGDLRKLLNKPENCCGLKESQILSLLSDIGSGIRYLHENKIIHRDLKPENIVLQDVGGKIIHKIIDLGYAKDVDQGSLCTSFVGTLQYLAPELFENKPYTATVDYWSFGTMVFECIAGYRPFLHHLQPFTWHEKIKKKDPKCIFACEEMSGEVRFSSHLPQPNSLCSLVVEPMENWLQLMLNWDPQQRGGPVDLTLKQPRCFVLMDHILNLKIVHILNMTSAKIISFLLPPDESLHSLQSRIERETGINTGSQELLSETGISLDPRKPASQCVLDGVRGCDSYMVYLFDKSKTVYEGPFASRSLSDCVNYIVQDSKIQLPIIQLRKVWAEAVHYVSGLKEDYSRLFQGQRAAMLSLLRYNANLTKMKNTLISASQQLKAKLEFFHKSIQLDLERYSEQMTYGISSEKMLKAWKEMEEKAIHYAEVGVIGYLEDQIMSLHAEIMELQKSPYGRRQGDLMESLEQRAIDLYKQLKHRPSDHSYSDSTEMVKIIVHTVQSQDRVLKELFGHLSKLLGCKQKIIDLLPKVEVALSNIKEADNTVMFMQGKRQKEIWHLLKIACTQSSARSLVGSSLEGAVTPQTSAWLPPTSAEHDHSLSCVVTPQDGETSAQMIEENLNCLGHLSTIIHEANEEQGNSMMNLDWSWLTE

The next assay addresses T2, PKCµ(h) (human) (UniProt Q15139).
T2 sequence (looked up): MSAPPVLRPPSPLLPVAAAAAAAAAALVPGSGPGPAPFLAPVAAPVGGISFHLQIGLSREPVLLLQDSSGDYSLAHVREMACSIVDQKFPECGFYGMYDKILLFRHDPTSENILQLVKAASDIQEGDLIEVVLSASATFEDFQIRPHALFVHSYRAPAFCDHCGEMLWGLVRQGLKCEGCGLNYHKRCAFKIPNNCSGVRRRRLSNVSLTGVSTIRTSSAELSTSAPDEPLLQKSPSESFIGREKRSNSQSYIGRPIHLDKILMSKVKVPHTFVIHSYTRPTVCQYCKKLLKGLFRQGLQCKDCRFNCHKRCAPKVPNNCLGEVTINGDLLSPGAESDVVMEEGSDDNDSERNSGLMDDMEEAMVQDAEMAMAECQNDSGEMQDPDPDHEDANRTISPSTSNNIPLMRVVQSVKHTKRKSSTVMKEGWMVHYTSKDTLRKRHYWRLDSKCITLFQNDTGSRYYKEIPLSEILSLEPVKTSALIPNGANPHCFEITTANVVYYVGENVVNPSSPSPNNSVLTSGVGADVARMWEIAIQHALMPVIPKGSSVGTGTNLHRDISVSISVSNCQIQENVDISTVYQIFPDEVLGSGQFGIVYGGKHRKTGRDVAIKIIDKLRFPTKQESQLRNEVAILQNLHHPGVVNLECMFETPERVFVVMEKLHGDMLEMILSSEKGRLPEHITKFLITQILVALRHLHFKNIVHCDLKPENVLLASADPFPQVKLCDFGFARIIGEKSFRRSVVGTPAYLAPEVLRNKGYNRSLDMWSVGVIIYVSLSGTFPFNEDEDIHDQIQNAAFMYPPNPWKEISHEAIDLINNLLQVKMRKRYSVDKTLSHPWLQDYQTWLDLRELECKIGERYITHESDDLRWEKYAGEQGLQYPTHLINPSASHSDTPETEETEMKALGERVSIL

The target of a further assay is T3, Ret(h) (human) (UniProt P07949).
T3 sequence (looked up): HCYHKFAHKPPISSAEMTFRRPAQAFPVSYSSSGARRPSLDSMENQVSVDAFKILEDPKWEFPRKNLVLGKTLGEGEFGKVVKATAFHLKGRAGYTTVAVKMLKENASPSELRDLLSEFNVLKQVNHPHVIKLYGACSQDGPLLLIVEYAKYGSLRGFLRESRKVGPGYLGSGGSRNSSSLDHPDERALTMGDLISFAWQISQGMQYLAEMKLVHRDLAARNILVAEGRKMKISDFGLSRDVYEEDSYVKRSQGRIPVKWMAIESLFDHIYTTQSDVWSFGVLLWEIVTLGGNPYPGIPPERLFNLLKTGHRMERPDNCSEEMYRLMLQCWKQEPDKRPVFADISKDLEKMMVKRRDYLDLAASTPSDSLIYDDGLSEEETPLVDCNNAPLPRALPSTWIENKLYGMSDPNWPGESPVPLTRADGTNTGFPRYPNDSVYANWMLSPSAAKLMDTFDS

The next assay has as its target T4, Axl(h) (human) (UniProt P30530).
T4 sequence (looked up): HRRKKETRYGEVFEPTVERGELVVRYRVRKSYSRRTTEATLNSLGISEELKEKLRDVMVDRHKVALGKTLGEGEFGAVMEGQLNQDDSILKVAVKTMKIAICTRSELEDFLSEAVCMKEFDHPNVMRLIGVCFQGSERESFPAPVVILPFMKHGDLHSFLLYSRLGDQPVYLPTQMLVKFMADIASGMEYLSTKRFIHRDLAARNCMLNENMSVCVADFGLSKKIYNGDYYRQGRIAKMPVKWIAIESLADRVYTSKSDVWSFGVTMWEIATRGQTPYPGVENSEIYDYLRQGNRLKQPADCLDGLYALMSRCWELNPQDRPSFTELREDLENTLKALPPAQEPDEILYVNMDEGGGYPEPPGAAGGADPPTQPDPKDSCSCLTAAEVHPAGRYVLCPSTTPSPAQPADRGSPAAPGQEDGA

Sequence of PAK4(h) (human) (O96013 whole entry): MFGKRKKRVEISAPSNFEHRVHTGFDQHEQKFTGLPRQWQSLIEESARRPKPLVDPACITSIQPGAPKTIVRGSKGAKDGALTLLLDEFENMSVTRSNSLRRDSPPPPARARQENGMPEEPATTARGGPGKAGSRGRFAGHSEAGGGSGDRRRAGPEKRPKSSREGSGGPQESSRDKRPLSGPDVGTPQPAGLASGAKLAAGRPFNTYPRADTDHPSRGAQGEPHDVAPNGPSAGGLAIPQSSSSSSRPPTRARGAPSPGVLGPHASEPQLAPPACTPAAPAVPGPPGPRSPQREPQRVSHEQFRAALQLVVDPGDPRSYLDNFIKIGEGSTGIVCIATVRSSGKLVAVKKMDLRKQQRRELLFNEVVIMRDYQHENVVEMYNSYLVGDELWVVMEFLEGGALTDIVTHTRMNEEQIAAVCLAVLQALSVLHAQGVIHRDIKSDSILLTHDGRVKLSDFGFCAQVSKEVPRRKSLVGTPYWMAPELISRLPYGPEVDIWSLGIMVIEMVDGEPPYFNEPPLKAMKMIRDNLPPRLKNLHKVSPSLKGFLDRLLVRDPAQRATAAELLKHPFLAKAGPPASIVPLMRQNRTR
Sequence of mTOR(h) (human) (P42345 1362-2549 limits assumed): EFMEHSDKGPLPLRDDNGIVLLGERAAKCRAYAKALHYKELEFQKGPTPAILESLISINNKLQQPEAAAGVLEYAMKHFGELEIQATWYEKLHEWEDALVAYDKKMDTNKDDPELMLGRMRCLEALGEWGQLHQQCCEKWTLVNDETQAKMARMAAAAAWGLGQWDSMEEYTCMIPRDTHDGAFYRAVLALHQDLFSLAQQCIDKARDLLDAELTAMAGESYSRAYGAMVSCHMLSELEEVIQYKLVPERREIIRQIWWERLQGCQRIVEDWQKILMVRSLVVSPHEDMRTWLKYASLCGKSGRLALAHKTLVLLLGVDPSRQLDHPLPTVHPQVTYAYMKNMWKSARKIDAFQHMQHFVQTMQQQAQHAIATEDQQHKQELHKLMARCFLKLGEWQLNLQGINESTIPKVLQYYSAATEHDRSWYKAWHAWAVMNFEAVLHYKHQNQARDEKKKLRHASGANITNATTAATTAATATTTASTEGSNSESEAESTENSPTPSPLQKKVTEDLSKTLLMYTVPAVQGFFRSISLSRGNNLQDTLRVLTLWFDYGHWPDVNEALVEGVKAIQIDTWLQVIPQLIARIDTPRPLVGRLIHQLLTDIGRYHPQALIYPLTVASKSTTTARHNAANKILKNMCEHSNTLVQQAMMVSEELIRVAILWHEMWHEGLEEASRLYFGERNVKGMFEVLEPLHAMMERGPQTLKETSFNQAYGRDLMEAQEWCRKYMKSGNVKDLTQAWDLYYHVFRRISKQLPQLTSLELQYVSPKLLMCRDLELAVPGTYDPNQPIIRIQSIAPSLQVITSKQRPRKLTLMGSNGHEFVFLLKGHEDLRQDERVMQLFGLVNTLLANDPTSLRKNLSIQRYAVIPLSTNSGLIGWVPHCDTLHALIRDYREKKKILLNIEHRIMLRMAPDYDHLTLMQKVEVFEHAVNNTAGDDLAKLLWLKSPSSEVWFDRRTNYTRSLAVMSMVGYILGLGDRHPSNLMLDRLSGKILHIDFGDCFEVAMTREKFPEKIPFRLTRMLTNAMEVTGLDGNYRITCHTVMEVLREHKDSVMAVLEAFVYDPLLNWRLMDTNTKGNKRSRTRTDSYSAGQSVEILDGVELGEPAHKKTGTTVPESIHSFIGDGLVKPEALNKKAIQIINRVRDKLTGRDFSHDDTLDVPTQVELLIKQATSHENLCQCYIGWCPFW

In the case of MMI-0500 (peptide), the % activity, 100 µM with IKKα(h) (human) was 50%; in the assay with PKCµ(h) (human) it was 10%; in the assay with Ret(h) (human), 174%; with EGFR(L858R)(h) (human) it was 26%; with Axl(h) (human), 12%; with mTOR(h) (human), 135%. The % activity, 100 µM in the assay with PAK4(h) (human) was 86%.
